Experimental data: publication PMC6181919, “A cysteine-based molecular code informs collagen C-propeptide assembly” (Nature Communications, 2018)

What was measured:
[1] = target: the molecule itself; assay: non-reducing SDS-PAGE immunoblot; conditioned media of transfected HEK293 cells, treated with 100 mM iodoacetamide, boiled in SDS, 12% gel, non-reducing; denaturing, shows disulfide-linked species only; two-colour detection of HA and FLAG
[2] = target: the molecule itself; assay: AUC; sedimentation equilibrium, 25 °C, 20 mM Bis-Tris propane pH 7, 150 mM NaCl, without Ca^2+; equilibrium constants are of monomer to dimer
[3] = target: the molecule itself; assay: SEC; size exclusion chromatography in the presence and absence of Ca^2+, compared to wild-type C-Proα1(I)
[4] = target: the molecule itself; assay: AUC; sedimentation equilibrium, 25 °C, 20 mM Bis-Tris propane pH 7, 150 mM NaCl, with 0.5 mM CaCl2; monomer to trimer
[5] = target: the molecule itself; assay: non-reducing SDS-PAGE immunoblot; cell lysate of transfected HEK293 cells (protein not secreted), non-reducing; denaturing, shows disulfide-linked species only

B1: wild-type, HA-tagged C-Proα1(I) (C-propeptide domain of human Colα1(I)) (domain or fragment)
chain: DDANVVRDRDLEVDTTLKSLSQQIENIRSPEGSRKNPARTCRDLKMCHSDWKSGEYWIDPNQGCNLDAIKVFCNMETGETCVYPTQPSVAQKNWYISKNPKDKRHVWFGESMTDGFQFEYGGQGSDPADVAIQLTFLRLMSTEASQNITYHCKNSVAYMDQQTGNLKKALLLQGSNEIEIRAEGNSRFTYSVTVDGCTSHTGAWGKTVIEYKTTKTSRLPIIDVAPLDVGAPDQEFGFDVGPVCFL
notes: C-propeptide (C-Pro) domain of human procollagen alpha1(I), from the endogenous C-proteinase cleavage site to the C-terminus; Secreted alone it is a disulfide-linked homotrimer; also called wild-type C-Proα1(I); Colα1(I) C-Pro; not shown: HA, N-terminal, kept
Q: How did the “stoichiometry N” value [1] turn out when B1 was run?
A: 3

B2: purified wild-type C-Proα1(I), His tag cleaved (domain or fragment, human)
chain: DDANVVRDRDLEVDTTLKSLSQQIENIRSPEGSRKNPARTCRDLKMCHSDWKSGEYWIDPNQGCNLDAIKVFCNMETGETCVYPTQPSVAQKNWYISKNPKDKRHVWFGESMTDGFQFEYGGQGSDPADVAIQLTFLRLMSTEASQNITYHCKNSVAYMDQQTGNLKKALLLQGSNEIEIRAEGNSRFTYSVTVDGCTSHTGAWGKTVIEYKTTKTSRLPIIDVAPLDVGAPDQEFGFDVGPVCFL
modifications: glycosylated (a single N-glycosylation site in the polypeptide; site not given)
notes: C-propeptide (C-Pro) domain of human procollagen alpha1(I), from the endogenous C-proteinase cleavage site to the C-terminus; The HA/FLAG vectors were modified to carry a cleavable 6x-His tag with an HRV-3C site; Interstrand disulfide-linked homotrimer; source: HEK293 Freestyle, transfected, secreted, purified (Ni-NTA, HRV-3C cleavage, second Ni-NTA, Superdex 200)
Q: B2 was tested. Which “stoichiometry N” value [2] did it give?
A: 3

B3: Asp1277His C-Proα1(I) (domain or fragment, human)
chain: DDANVVRDRDLEVDTTLKSLSQQIENIRSPEGSRKNPARTCRDLKMCHSDWKSGEYWIHPNQGCNLDAIKVFCNMETGETCVYPTQPSVAQKNWYISKNPKDKRHVWFGESMTDGFQFEYGGQGSDPADVAIQLTFLRLMSTEASQNITYHCKNSVAYMDQQTGNLKKALLLQGSNEIEIRAEGNSRFTYSVTVDGCTSHTGAWGKTVIEYKTTKTSRLPIIDVAPLDVGAPDQEFGFDVGPVCFL
notes: C-propeptide (C-Pro) domain of human procollagen alpha1(I) with the osteogenesis imperfecta-causing substitution Asp1277His
Q: Which “stoichiometry N” value [3] does the source give for B3 here?
A: 2

B4: purified C2S (Cys1265Ser) C-Proα1(I), His tag cleaved (domain or fragment, human)
chain: DDANVVRDRDLEVDTTLKSLSQQIENIRSPEGSRKNPARTCRDLKMSHSDWKSGEYWIDPNQGCNLDAIKVFCNMETGETCVYPTQPSVAQKNWYISKNPKDKRHVWFGESMTDGFQFEYGGQGSDPADVAIQLTFLRLMSTEASQNITYHCKNSVAYMDQQTGNLKKALLLQGSNEIEIRAEGNSRFTYSVTVDGCTSHTGAWGKTVIEYKTTKTSRLPIIDVAPLDVGAPDQEFGFDVGPVCFL
modifications: glycosylated (a single N-glycosylation site in the polypeptide; site not given)
notes: C-propeptide (C-Pro) domain of human procollagen alpha1(I), from the endogenous C-proteinase cleavage site to the C-terminus; also called C2S C-Proα1(I); source: HEK293 Freestyle, transfected, secreted, purified (Ni-NTA, HRV-3C cleavage, second Ni-NTA, Superdex 200)
Q: Which results are given for B4?
A: stoichiometry N [4]: 3; Ka [2]: 76300 M⁻¹; stoichiometry N [2]: 2

B5: wild-type, HA-tagged C-Proα2(XI) (domain or fragment, human, UniProt P13942 1501-1736, looked up)
chain: IQPLPIQMPKKTRRSVDGSRLMQEDEAIPTGGAPGSPGGLEEIFGSLDSLREEIEQMRRPTGTQDSPARTCQDLKLCHPELPDGEYWVDPNQGCARDAFRVFCNFTAGGETCVTPRDDVTQFSYVDSEGSPVGVVQLTFLRLLSVSAHQDVSYPCSGAARDGPLRLRGANEDELSPETSPYVKEFRDGCQTQQGRTVLEVRTPVLEQLPVLDASFSDLGAPPRRGGVLLGPVCFMG
notes: C-propeptide (C-Pro) domain of human procollagen alpha2(XI); gene bought from Genewiz; source: HEK293, transfected, not secreted, in cell lysate; not shown: HA, N-terminal, kept
Q: B5 was tested. Which “stoichiometry N” value [5] did it give?
A: 3
